Laboratory results: the RNAGym collection of RNA variant scans (doi:10.7554/elife.90254)

B1: OR4K15 (parent)
chain: GUUAACGGUCAUAGGCCAUGGAAACUAGGAGCACCAUUUCGCUGCCAGUGAAGAAAUGAACAAAGAAAAUCUGGGCCAGGCAGGCAUCAAAAGAAAUAGUCUUGCGCUCAACCAGAAAGUCUGUAAUCAUUUUAAGGGUA

Variants of: B1
Assay: self-cleavage, relative activity (ratio to wild type); higher = more cleavage; in vitro, sequencing; the parent is a self-cleaving ribozyme

In order of falling self-cleavage:
1. GUUAACGGUCAUAGGCCAUGGAAACUAGGAGCACCAUUUCGCUGCCAGUGAAGAAAUGAACAAAGAAAAUCUGGGCCAGGCAGGCAUCAAAAGAAAUAGUCUUGCGCUCAACCAGAAAGUCUGUAAUCAUUUUAAAGGUU [G136A A140U]  2.39
2. GUUAACGGUCAUAGGCCAUGGAAACUAGGAGCACCAUUUCGCUGCCAGUGAAGAAAUGAACAAAGAAAAUCUGGGCCAGGCAGGCAUCAAAAGAAAUAGUCUUGCGCUCAACCAGAAAGUCUGUAAUCAUUUCAAGGGUU [U133C A140U]  2.09
3. GUUAACGGUCAUAGGCCAUGGAAACUAGGAGCACCAUUUCGCUGCCAGUGAAGAAAUGAACAAAGAAAAUCUGGGCCAGGCAGGCAUCAAAAGAAAUAGUCUUGCGCUCAACCAGAAAGUCUGUAAUCAUUUCAUGGGUA [U133C A135U]  1.71
4. GUUAACGGUCAUAGGCCAUGGAAACUAGGAGCACCAUUUCGCUGCCAGUGAAGAAAUGAACAAAGAAAAUCUGGGCCAGGCAGGCAUCAAAAGAAAUAGUCUUGCGCUCAACCAGAAAGUCUGUAAUCAUUUUAUGUGUA [A135U G137U]  1.68
5. GUUAACGGUCAUAGGCCAUGGAAACUAGGAGCACCAUUUCGCUGCCAGUGAAGAAAUGAACAAAGAAAAUCUGGGCCAGGCAGGCAUCAAAAGAAAUAGUCUUGCGCUCAACCAGAAAGUCUGUAAUCAUUUUAAGCGUU [G137C A140U]  1.65
6. GUUAACGGUCAUAGGCCAUGGAAACUAGGAGCACCAUUUCGCUGCCAGUGAAGAAAUGAACAAAGAAAAUCUGGGCCAGGCAGGCAUCAAAAGAAAUAGUCUUGCGCUCAACCAGAAAGUCUGUAAUCAUUUUUAGGGAA [A134U U139A]  1.59
7. GUUAACGGUCAUAGGCCAUGGAAACUAGGAGCACCAUUUCGCUGCCAGUGAAGAAAUGAACAAAGAAAAUCUGGGCCAGGCAGGCAUCAAAAGAAAUAGUCUUGCGCUCAACCAGAAAGUCUGUAAUCAUUCUAAGGUUA [U132C G138U]  1.54
8. GUUAACGGUCAUAGGCCAUGGAAACUAGGAGCACCAUUUCGCUGCCAGUGAAGAAAUGAACAAAGAAAAUCUGGGCCAGGCAGGCAUCAAAAGAAAUAGUCUUGCGCUCAACCAGAAAGUCUGUAAUCAUUCUAGGGGUA [U132C A135G]  1.53
9. GUUAACGGUCAUAGGCCAUGGAAACUAGGAGCACCAUUUCGCUGCCAGUGAAGAAAUGAACAAAGAAAAUCUGGGCCAGGCAGGCAUCAAAAGAAAUAGUCUUGCGCUCAACCAGAAAGUCUGUAAUCAUUUUAAGGGCC [U139C A140C]  1.42
10. GUUAACGGUCAUAGGCCAUGGAAACUAGGAGCACCAUUUCGCUGCCAGUGAAGAAAUGAACAAAGAAAAUCUGGGCCAGGCAGGCAUCAAAAGAAAUAGUCUUGCGCUCAACCAGAAAGUCUGUAAUCAUUUUAAGGGUC [A140C]  1.4
11. GUUAACGGUCAUAGGCCAUGGAAACUAGGAGCACCAUUUCGCUGCCAGUGAAGAAAUGAACAAAGAAAAUCUGGGCCAGGCAGGCAUCAAAAGAAAUAGUCUUGCGCUCAACCAGAAAGUCUGUAAUCAUUUCAAGGGUG [U133C A140G]  1.34
12. GUUAACGGUCAUAGGCCAUGGAAACUAGGAGCACCAUUUCGCUGCCAGUGAAGAAAUGAACAAAGAAAAUCUGGGCCAGGCAGGCAUCAAAAGAAAUAGUCUUGCGCUCAACCAGAAAGUCUGUAAUCAUUUUAAAGGUA [G136A]  1.34
13. GUUAACGGUCAUAGGCCAUGGAAACUAGGAGCACCAUUUCGCUGCCAGUGAAGAAAUGAACAAAGAAAAUCUGGGCCAGGCAGGCAUCAAAAGAAAUAGUCUUGCGCUCAACCAGAAAGUCUGUAAUCAUUUAAAGGGUA [U133A]  1.32
14. GUUAACGGUCAUAGGCCAUGGAAACUAGGAGCACCAUUUCGCUGCCAGUGAAGAAAUGAACAAAGAAAAUCUGGGCCAGGCAGGCAUCAAAAGAAAUAGUCUUGCGCUCAACCAGAAAGUCUGUAAUCAUUUUAACGGUA [G136C]  1.29
15. GUUAACGGUCAUAGGCCAUGGAAACUAGGAGCACCAUUUCGCUGCCAGUGAAGAAAUGAACAAAGAAAAUCUGGGCCAGGCAGGCAUCAAAAGAAAUAGUCUUGCGCUCAACCAGAAAGUCUGUAAUCAUUUCAAGGGUA [U133C]  1.29
16. GUUAACGGUCAUAGGCCAUGGAAACUAGGAGCACCAUUUCGCUGCCAGUGAAGAAAUGAACAAAGAAAAUCUGGGCCAGGCAGGCAUCAAAAGAAAUAGUCUUGCGCUCAACCAGAAAGUCUGUAAUCAUUUUGGGGGUA [A134G A135G]  1.25
17. GUUAACGGUCAUAGGCCAUGGAAACUAGGAGCACCAUUUCGCUGCCAGUGAAGAAAUGAACAAAGAAAAUCUGGGCCAGGCAGGCAUCAAAAGAAAUAGUCUUGCGCUCAACCAGAAAGUCUGUAAUCAUUUUAAGGGUG [A140G]  1.15
18. GUUAACGGUCAUAGGCCAUGGAAACUAGGAGCACCAUUUCGCUGCCAGUGAAGAAAUGAACAAAGAAAAUCUGGGCCAGGCAGGCAUCAAAAGAAAUAGUCUUGCGCUCAACCAGAAAGUCUGUAAUCAUUUUAAGGGUU [A140U]  1.12
19. GUUAACGGUCAUAGGCCAUGGAAACUAGGAGCACCAUUUCGCUGCCAGUGAAGAAAUGAACAAAGAAAAUCUGGGCCAGGCAGGCAUCAAAAGAAAUAGUCUUGCGCUCAACCAGAAAGUCUGUAAUCAUUUUAAGGGGA [U139G]  1.1
20. GUUAACGGUCAUAGGCCAUGGAAACUAGGAGCACCAUUUCGCUGCCAGUGAAGAAAUGAACAAAGAAAAUCUGGGCCAGGCAGGCAUCAAAAGAAAUAGUCUUGCGCUCAACCAGAAAGUCUGUAAUCAUUUUAAUGGUA [G136U]  1.07
21. GUUAACGGUCAUAGGCCAUGGAAACUAGGAGCACCAUUUCGCUGCCAGUGAAGAAAUGAACAAAGAAAAUCUGGGCCAGGCAGGCAUCAAAAGAAAUAGUCUUGCGCUCAACCAGAAAGUCUGUAAUCAUUUUAAGGGCA [U139C]  1.04
22. GUUAACGGUCAUAGGCCAUGGAAACUAGGAGCACCAUUUCGCUGCCAGUGAAGAAAUGAACAAAGAAAAUCUGGGCCAGGCAGGCAUCAAAAGAAAUAGUCUUGCGCUCAACCAGAAAGUCUGUAAUCAUUCUAAGGGAA [U132C U139A]  0.99
23. GUUAACGGUCAUAGGCCAUGGAAACUAGGAGCACCAUUUCGCUGCCAGUGAAGAAAUGAACAAAGAAAAUCUGGGCCAGGCAGGCAUCAAAAGAAAUAGUCUUGCGCUCAACCAGAAAGUCUGUAAUCAUUUAAAUGGUA [U133A G136U]  0.91
24. GUUAACGGUCAUAGGCCAUGGAAACUAGGAGCACCAUUUCGCUGCCAGUGAAGAAAUGAACAAAGAAAAUCUGGGCCAGGCAGGCAUCAAAAGAAAUAGUCUUGCGCUCAACCAGAAAGUCUGUAAUCAUUUUAAGGGAA [U139A]  0.59
25. GUUAACGGUCAUAGGCCAUGGAAACUAGGAGCACCAUUUCGCUGCCAGUGAAGAAAUGAACAAAGAAAAUCUGGGCCAGGCAGGCAUCAAAAGAAAUAGUCUUGCGCUCAACCAGAAAGUCUGUAAUCAUUUUGAGUGUA [A134G G137U]  0.44
26. GUUAACGGUCAUAGGCCAUGGAAACUAGGAGCACCAUUUCGCUGCCAGUGAAGAAAUGAACAAAGAAAAUCUGGGCCAGGCAGGCAUCAAAAGAAAUAGUCUUGCGCUCAACCAGAAAGUCUGUAAUCAUUUGAAGGGUA [U133G]  0.38
27. GUUAACGGUCAUAGGCCAUGGAAACUAGGAGCACCAUUUCGCUGCCAGUGAAGAAAUGAACAAAGAAAAUCUGGGCCAGGCAGGCAUCAAAAGAAAUAGUCUUGCGCUCAACCAGAAAGUCUGUAAUCAUUUUGAGGGUG [A134G A140G]  0.28
